Measured values: paper PMC4872100
pKd: −log10 of the molar value.

Tests used:
Experiment in all cases: SPR
[1] = target: human uracil DNA glycosylase (human UDG) (human) (UniProt P13051)
[2] = target: Epstein-Barr virus (human herpesvirus 4) uracil DNA glycosylase (EBVUDG) (Epstein-Barr virus (EBV; human herpesvirus 4)) (UniProt P12888)
[3] = target: Mycobacterium tuberculosis uracil DNA glycosylase (TBUDG) (Mycobacterium tuberculosis) (UniProt P9WFQ9)

Work on SAUGI E24AQ52R (natural protein) yielded a pKd [1] of 8.48, a koff [1] of 0.00529 s⁻¹ and a kon [1] of 1.6e+06 M⁻¹ s⁻¹.

In the case of “Staphylococcus aureus uracil-DNA glycosylase inhibitor SAUGI (natural protein)”, the pKd [2] was 9.32, the koff [2] was 0.0012 s⁻¹ and the kon [2] was 2.54e+06 M⁻¹ s⁻¹. The pKd [3] was 6.70, the ka1 (two-state model, step 1) [3] was 4.32e+06 M⁻¹ s⁻¹ and the ka2 (two-state model, step 2) [3] was 20 M⁻¹ s⁻¹. For the same substance, the kd1 (two-state model, step 1) [3] was 1.39 s⁻¹, the pKd [1] was 8.71 and the koff [1] was 0.00361 s⁻¹. It also gave a kon [1] of 1.85e+06 M⁻¹ s⁻¹.
